# Source: the supplement of paper PMC10065799, “High-throughput profiling of sequence recognition by tyrosine kinases and SH2 domains using bacterial peptide display” (eLife, 2023)
# Tested on: AncSZ
# Assay: phosphorylation enrichment, bacterial display (enrichment ratio); higher = better substrate or ligand; peptides without Tyr show the background
# 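Further: 11-residue human phosphosite peptides and single-mutation variants displayed on the E. coli surface, counted by deep sequencing, each peptide's frequency after selection divided by its frequency in the unselected input library; frequency after pTyr selection over input frequency; kinase dosed for 20-30% of maximal phosphorylation in three min.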
row,Sequence,phosphorylation enrichment
1,IENKLYGMSDS [RET_Y1062_P1067S],0.805
2,GVRLYYRVRES [RB1_Y454_M457R],1.54
3,KGERGYPGTPG [COL4A1_Y348],0.384
4,ANKNVYEVEPT [MEGF10_Y1075_R1072K],0.823
5,QQTFTYDSGIH [JUP_Y22_YF],1.8
6,ALKKPYGVLYK [RPF2_Y59],0.643
7,SAEEDYIADAK [KCNT1_Y876_M877I],1.22
8,SECCKYKIDNP [OSMR_Y689],0.642
9,FLAVGYHKLHI [IDS_Y225_P228L],1.03
10,TNYRLYLRSLE [MTM1_Y71],1.11
11,YQGGTYSKACT [FGG_Y380_S384C],0.52
12,LSDGPYSNPFE [EPOR_Y485_YF],1.47
13,DRFANYIEKVR [DES_Y122],0.628
14,PGIRMYRVQFN [LRFN1_Y454_Q455R_YF],1.35
15,WKEIEYEVVRD [CPS1_Y634],1.31
16,GHLFANDWISI [BEST1_Y227_Y227N_YF],0.703
17,KHGGNYVPAPE [OSCP1_Y237_K242E],0.754
18,GMAHNYRNRSQ [AASS_Y188_S191R],0.599
19,LAAPKYKLNVD [SMARCA2_Y1190_A1188P],0.46
20,PQAVRYIYTID [DCX_Y103_G100A],1.12
21,VSGIPYSQPKQ [NEU1_Y251_G252S],0.467
22,DAHFTYSRFPW [LY75_Y888_D884A_YF],1.05
23,NDHHVYLEGTL [ALDOB_Y223],0.718
24,HSRTRYERNIE [F2_Y434],1.08
25,QNTGDYCDLYG [PTPN11_Y62_Y63C],2.75
26,LVRPPYSFSAL [FOXI1_Y126_YF],0.602
27,LDCNEYFRDLN [HPRT1_Y198_Y195C],1.82
28,RLQEGYDHSYY [ESD_Y258],1.21
29,ATYRGYDSDNP [MMUT_Y146_H143Y],0.742

# Target: EPHB1 (UniProt P54762)
# Assay: as above
# EPHB1, sequence (P54762 whole entry, looked up): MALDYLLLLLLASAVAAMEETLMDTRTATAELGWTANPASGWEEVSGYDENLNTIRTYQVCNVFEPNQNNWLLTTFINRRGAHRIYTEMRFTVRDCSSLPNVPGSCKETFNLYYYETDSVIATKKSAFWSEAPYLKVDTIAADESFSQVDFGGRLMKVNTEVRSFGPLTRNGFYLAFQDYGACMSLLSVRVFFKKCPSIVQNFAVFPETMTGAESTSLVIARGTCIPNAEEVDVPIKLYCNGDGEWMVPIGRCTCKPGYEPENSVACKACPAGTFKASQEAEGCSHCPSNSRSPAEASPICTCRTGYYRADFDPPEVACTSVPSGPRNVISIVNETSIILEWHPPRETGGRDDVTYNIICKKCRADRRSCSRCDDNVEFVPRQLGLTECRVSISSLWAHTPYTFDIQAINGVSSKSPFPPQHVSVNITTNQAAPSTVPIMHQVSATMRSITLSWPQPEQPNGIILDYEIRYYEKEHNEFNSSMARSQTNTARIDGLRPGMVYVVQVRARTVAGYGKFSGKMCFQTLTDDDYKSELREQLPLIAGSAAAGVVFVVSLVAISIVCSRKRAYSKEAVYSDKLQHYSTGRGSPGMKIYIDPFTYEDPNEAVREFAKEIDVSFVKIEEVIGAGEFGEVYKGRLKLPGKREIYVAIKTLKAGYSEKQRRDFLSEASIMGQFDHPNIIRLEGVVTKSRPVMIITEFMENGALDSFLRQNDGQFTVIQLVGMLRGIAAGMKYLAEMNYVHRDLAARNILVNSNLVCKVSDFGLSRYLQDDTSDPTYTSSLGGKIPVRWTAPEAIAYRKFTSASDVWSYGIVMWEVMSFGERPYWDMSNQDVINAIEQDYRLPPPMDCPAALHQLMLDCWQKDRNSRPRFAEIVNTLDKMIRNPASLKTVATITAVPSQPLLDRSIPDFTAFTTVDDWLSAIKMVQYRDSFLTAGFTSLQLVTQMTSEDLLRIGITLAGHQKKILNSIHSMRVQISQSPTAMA
row,Sequence,phosphorylation enrichment
1,IENKLYGMSDS [RET_Y1062_P1067S],0.464
2,GVRLYYRVRES [RB1_Y454_M457R],0.435
3,KGERGYPGTPG [COL4A1_Y348],0.336
4,ANKNVYEVEPT [MEGF10_Y1075_R1072K],0.516
5,QQTFTYDSGIH [JUP_Y22_YF],1.35
6,ALKKPYGVLYK [RPF2_Y59],0.544
7,SAEEDYIADAK [KCNT1_Y876_M877I],0.602
8,SECCKYKIDNP [OSMR_Y689],0.464
9,FLAVGYHKLHI [IDS_Y225_P228L],0.545
10,TNYRLYLRSLE [MTM1_Y71],0.666
11,YQGGTYSKACT [FGG_Y380_S384C],0.428
12,LSDGPYSNPFE [EPOR_Y485_YF],0.547
13,DRFANYIEKVR [DES_Y122],0.523
14,PGIRMYRVQFN [LRFN1_Y454_Q455R_YF],0.468
15,WKEIEYEVVRD [CPS1_Y634],0.701
16,GHLFANDWISI [BEST1_Y227_Y227N_YF],0.424
17,KHGGNYVPAPE [OSCP1_Y237_K242E],0.369
18,GMAHNYRNRSQ [AASS_Y188_S191R],0.414
19,LAAPKYKLNVD [SMARCA2_Y1190_A1188P],0.205
20,PQAVRYIYTID [DCX_Y103_G100A],0.74
21,VSGIPYSQPKQ [NEU1_Y251_G252S],0.234
22,DAHFTYSRFPW [LY75_Y888_D884A_YF],2.72
23,NDHHVYLEGTL [ALDOB_Y223],0.494
24,HSRTRYERNIE [F2_Y434],0.851
25,QNTGDYCDLYG [PTPN11_Y62_Y63C],9.03
26,LVRPPYSFSAL [FOXI1_Y126_YF],0.385
27,LDCNEYFRDLN [HPRT1_Y198_Y195C],0.933
28,RLQEGYDHSYY [ESD_Y258],0.717
29,ATYRGYDSDNP [MMUT_Y146_H143Y],0.427

# Target: EPHB2 (UniProt P29323)
# Assay: as above
# EPHB2, sequence (P29323 whole entry, looked up): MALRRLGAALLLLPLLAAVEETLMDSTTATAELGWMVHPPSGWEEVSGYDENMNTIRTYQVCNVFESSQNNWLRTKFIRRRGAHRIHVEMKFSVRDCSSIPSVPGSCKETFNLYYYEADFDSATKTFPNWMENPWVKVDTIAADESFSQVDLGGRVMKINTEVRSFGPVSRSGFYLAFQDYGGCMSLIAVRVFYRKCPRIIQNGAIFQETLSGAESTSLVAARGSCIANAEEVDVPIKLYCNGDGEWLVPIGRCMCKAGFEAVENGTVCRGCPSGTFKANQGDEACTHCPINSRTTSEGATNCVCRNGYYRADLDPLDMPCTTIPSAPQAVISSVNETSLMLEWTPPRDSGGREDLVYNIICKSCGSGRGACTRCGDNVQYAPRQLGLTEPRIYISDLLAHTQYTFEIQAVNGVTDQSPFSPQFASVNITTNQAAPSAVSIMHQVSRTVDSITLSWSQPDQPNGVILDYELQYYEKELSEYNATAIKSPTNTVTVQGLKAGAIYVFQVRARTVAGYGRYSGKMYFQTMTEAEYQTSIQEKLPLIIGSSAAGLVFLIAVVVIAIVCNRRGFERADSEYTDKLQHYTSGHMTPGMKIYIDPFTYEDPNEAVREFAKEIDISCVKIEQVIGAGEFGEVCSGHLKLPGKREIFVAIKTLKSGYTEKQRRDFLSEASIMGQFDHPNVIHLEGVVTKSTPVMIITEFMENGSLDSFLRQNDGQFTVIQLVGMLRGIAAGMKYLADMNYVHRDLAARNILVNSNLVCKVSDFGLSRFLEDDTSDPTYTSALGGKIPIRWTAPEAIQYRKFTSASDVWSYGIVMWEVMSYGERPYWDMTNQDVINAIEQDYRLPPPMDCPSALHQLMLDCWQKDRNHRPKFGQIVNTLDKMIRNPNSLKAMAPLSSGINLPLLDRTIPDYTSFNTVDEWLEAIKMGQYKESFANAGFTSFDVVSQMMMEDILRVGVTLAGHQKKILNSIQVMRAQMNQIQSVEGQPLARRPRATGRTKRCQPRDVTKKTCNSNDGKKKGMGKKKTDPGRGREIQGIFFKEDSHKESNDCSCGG
row,Sequence,phosphorylation enrichment
1,IENKLYGMSDS [RET_Y1062_P1067S],0.524
2,GVRLYYRVRES [RB1_Y454_M457R],0.447
3,KGERGYPGTPG [COL4A1_Y348],0.372
4,ANKNVYEVEPT [MEGF10_Y1075_R1072K],0.492
5,QQTFTYDSGIH [JUP_Y22_YF],1.33
6,ALKKPYGVLYK [RPF2_Y59],0.4
7,SAEEDYIADAK [KCNT1_Y876_M877I],0.703
8,SECCKYKIDNP [OSMR_Y689],0.416
9,FLAVGYHKLHI [IDS_Y225_P228L],0.575
10,TNYRLYLRSLE [MTM1_Y71],0.556
11,YQGGTYSKACT [FGG_Y380_S384C],0.4
12,LSDGPYSNPFE [EPOR_Y485_YF],0.628
13,DRFANYIEKVR [DES_Y122],0.424
14,PGIRMYRVQFN [LRFN1_Y454_Q455R_YF],0.642
15,WKEIEYEVVRD [CPS1_Y634],1.2
16,GHLFANDWISI [BEST1_Y227_Y227N_YF],0.625
17,KHGGNYVPAPE [OSCP1_Y237_K242E],0.471
18,GMAHNYRNRSQ [AASS_Y188_S191R],0.388
19,LAAPKYKLNVD [SMARCA2_Y1190_A1188P],0.307
20,PQAVRYIYTID [DCX_Y103_G100A],0.722
21,VSGIPYSQPKQ [NEU1_Y251_G252S],0.4
22,DAHFTYSRFPW [LY75_Y888_D884A_YF],3.63
23,NDHHVYLEGTL [ALDOB_Y223],0.509
24,HSRTRYERNIE [F2_Y434],0.531
25,QNTGDYCDLYG [PTPN11_Y62_Y63C],7.83
26,LVRPPYSFSAL [FOXI1_Y126_YF],0.46
27,LDCNEYFRDLN [HPRT1_Y198_Y195C],0.922
28,RLQEGYDHSYY [ESD_Y258],0.53
29,ATYRGYDSDNP [MMUT_Y146_H143Y],0.431

# Target: FGFR1 (UniProt P11362)
# Assay: as above
# FGFR1, sequence (P11362 whole entry, looked up): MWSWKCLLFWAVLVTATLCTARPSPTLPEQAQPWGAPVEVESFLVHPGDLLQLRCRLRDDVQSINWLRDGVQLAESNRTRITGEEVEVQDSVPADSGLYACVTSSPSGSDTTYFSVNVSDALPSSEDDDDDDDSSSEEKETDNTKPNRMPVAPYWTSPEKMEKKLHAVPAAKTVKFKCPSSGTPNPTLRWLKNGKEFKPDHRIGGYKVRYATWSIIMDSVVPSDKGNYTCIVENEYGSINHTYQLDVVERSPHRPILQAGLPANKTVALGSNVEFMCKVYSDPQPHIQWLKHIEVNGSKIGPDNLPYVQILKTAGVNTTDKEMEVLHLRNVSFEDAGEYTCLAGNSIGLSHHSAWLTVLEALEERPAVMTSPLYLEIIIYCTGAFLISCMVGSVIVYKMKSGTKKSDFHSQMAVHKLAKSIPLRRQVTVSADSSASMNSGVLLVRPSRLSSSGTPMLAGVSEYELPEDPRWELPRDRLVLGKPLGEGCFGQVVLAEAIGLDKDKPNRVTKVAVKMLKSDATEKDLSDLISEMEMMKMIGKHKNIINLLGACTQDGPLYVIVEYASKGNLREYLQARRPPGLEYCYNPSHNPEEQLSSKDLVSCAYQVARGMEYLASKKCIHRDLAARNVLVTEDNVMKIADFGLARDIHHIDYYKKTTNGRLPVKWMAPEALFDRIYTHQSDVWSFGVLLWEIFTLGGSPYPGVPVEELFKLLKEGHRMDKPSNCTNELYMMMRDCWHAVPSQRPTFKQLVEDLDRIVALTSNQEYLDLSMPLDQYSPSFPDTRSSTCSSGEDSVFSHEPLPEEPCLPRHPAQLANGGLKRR
row,Sequence,phosphorylation enrichment
1,IENKLYGMSDS [RET_Y1062_P1067S],0.484
2,GVRLYYRVRES [RB1_Y454_M457R],0.662
3,KGERGYPGTPG [COL4A1_Y348],0.354
4,ANKNVYEVEPT [MEGF10_Y1075_R1072K],0.383
5,QQTFTYDSGIH [JUP_Y22_YF],0.984
6,ALKKPYGVLYK [RPF2_Y59],0.455
7,SAEEDYIADAK [KCNT1_Y876_M877I],0.617
8,SECCKYKIDNP [OSMR_Y689],0.756
9,FLAVGYHKLHI [IDS_Y225_P228L],0.447
10,TNYRLYLRSLE [MTM1_Y71],0.595
11,YQGGTYSKACT [FGG_Y380_S384C],0.349
12,LSDGPYSNPFE [EPOR_Y485_YF],0.491
13,DRFANYIEKVR [DES_Y122],0.419
14,PGIRMYRVQFN [LRFN1_Y454_Q455R_YF],0.622
15,WKEIEYEVVRD [CPS1_Y634],0.549
16,GHLFANDWISI [BEST1_Y227_Y227N_YF],0.43
17,KHGGNYVPAPE [OSCP1_Y237_K242E],0.403
18,GMAHNYRNRSQ [AASS_Y188_S191R],0.344
19,LAAPKYKLNVD [SMARCA2_Y1190_A1188P],0.258
20,PQAVRYIYTID [DCX_Y103_G100A],0.723
21,VSGIPYSQPKQ [NEU1_Y251_G252S],0.389
22,DAHFTYSRFPW [LY75_Y888_D884A_YF],0.748
23,NDHHVYLEGTL [ALDOB_Y223],0.494
24,HSRTRYERNIE [F2_Y434],0.835
25,QNTGDYCDLYG [PTPN11_Y62_Y63C],5.87
26,LVRPPYSFSAL [FOXI1_Y126_YF],0.395
27,LDCNEYFRDLN [HPRT1_Y198_Y195C],0.966
28,RLQEGYDHSYY [ESD_Y258],0.715
29,ATYRGYDSDNP [MMUT_Y146_H143Y],0.453
